Series [1] concerns the molecule itself. Description: cryo-EM structure.
For series [2], the target named is fluorescently labeled KaiB (Synechococcus elongatus) (UniProt Q79PF5). Description: fluorescence polarisation. Background: Fluorescence polarisation rises when a labelled molecule tumbles more slowly, as on binding a larger partner.

Experimental findings from article PMC9495280 (Nature structural & molecular biology, 2022) are described below.

Where only a bound is given, the exact number is not on record here.

B1: KaiC-S431A-T432E (natural protein, Synechococcus elongatus)
chain: MTSAEMTSPNNNSEHQAIAKMRTMIEGFDDISHGGLPIGRSTLVSGTSGTGKTLFSIQFLYNGIIEFDEPGVFVTFEETPQDIIKNARSFGWDLAKLVDEGKLFILDASPDPEGQEVVGGFDLSALIERINYAIQKYRARRVSIDSVTSVFQQYDASSVVRRELFRLVARLKQIGATTVMTTERIEEYGPIARYGVEEFVSDNVVILRNVLEGERRRRTLEILKLRGTSHMKGEYPFTITDHGINIFPLGAMRLTQRSSNVRVSSGVVRLDEMCGGGFFKDSIILATGATGTGKTLLVSRFVENACANKERAILFAYEESRAQLLRNAYSWGMDFEEMERQNLLKIVCAYPESAGLEDHLQIIKSEINDFKPARIAIDSLSALARGVSNNAFRQFVIGVTGYAKQEEITGLFTNTSDQFMGAHSITDSHIAEITDTIILLQYVEIRGEMSRAINVFKMRGSWHDKAIREFMISDKGPDIKDSFRNFERIISGSPTRITVDEKSELSRIVRGVQEKGPES
As usually defined, the stoichiometry N is a count of units in the complex or per binding partner. Broadly, the Kd is the equilibrium constant for the complex coming apart. The low end stands for higher affinity, the high end for lower affinity. Regarding B1, in series [1], the “stoichiometry N” value stood at 6. Moreover, the Kd in series [2] is more than 43 µM.
